Patent US20110262525A1, “METHODS OF TREATMENT” (SCHERING CORPORATION, priority 2006, published 2011)
Marks after values point to notes of the source that are not given here.

Legend:
[1] = system: NB-1643 xenograft (Neuroblastoma); experiment: PPTP in vivo xenograft NB-1643; settings: NB-1643 (Neuroblastoma) xenograft, 0.5 mg per mouse ip twice weekly for four weeks
Procedure: (§1) The PPTP includes a molecularly characterized in vitro panel of cell lines (n=27) and in vivo panel of xenografts (n=61) representing most of the common types of childhood solid tumors and childhood ALL (acute lymphoblastic leukemia). LCF/HCA anti-IGF1R antibody was tested against the PPTP in vitro panel at concentrations ranging from 0.01 nM to 100 nM; and was tested against the PPTP in vivo panel at a dose of 0.5 mg per mouse administered twice weekly for four weeks via intraperitoneal injection. Three measures of antitumor activity were used: 1) response criteria modeled after the clinical setting; 2) treated-to-control (T/C) tumor volume at day 21; and 3) a time to event (4-fold increase in tumor volume) measure based on the median EFS of treated and control lines (intermediate activity required EFS (event-free survival) T/C>2, and high activity additionally required a net reduction in median tumor volume at the end of the experiment).
(§2) Stage 1 testing involved testing an agent across the entire PPTP panel of childhood cancer xenograft lines at its maximum tolerated dose (MTD) or at a dose selected based on PK/PD (pharmacokinetic/pharmacodynamic) studies using adult preclinical models.
(§3) In vivo solid tumor testing: For each xenograft line, 10 mice bearing subcutaneous (SC) tumors initiated treatment when the tumors were between 0.2-0.5 cm^3 in volume. Two perpendicular tumor diameters were measured at once weekly intervals with digital vernier calipers. Assuming tumors to be spherical, volumes were calculated from the formula (π/6)×d3, where d represented the mean diameter.
(§4) Drug: LCF/HCA was dissolved in 20mM sodium acetate pH 5 buffer containing 150 mM sodium chloride, and administered intraperitoneally twice weekly for 4 consecutive weeks at a dose of 0.5 mg per animal. The antibody was provided to each testing site in coded vials for blinded testing according the PPTP's standard operating procedures.
(§5) Median Group Response: Each individual mouse in each treatment group was assigned a response score (see Tables above) and a median score for the treatment group was calculated and then each treatment group was assigned an overall response according to the table below.
(§6) Statistical Methods: Event-free survival (EFS) distributions of each treatment group were compared to the EFS distribution of the respective control group using the exact log rank test. P-values were 2-sided & were not adjusted for multiple comparisons given the exploratory nature of this study. P-values<0.05 were considered to be significant.

[2] = system: CHLA258 xenograft (Ewings); experiment: PPTP in vivo xenograft CHLA258; design: key to EFS activity notation (high, intermediate, indeterminate): high (!); intermediate (#); indeterminate (^)
Procedure: as §1, §2, §3, §4, §5, §6

[3] = system: KT-16 xenograft (Rhabdoid); experiment: PPTP in vivo xenograft KT-16; settings: KT-16 (Rhabdoid) xenograft, 0.5 mg per mouse ip twice weekly for four weeks
Procedure: as §1, §2, §3
(§7) Drug: LCF/HCA was dissolved in 20mM sodium acetate pH 5 buffer containing 150 mM sodium chloride, and administered intraperitoneally twice weekly for 4 consecutive weeks at a dose of 0.5 mg per animal. […]
(§8) Median Group Response: Each individual mouse in each treatment group was assigned a response score (see Tables above) and a median score for the treatment group was calculated and then each treatment group was assigned an overall response according to the table below. […]

[4] = system: KT-13 xenograft (Wilms); experiment: PPTP in vivo xenograft KT-13; settings: KT-13 (Wilms) xenograft, 0.5 mg per mouse ip twice weekly for four weeks
Procedure: as §1, §2, §3, §7, §8

[5] = system: NB-SD xenograft (Neuroblastoma); experiment: PPTP in vivo xenograft NB-SD; design: key to EFS activity notation (high, intermediate, indeterminate): high (!); intermediate (#); indeterminate (^)
Procedure: as §1, §2, §3, §4, §5, §6

[6] = system: squamous cell carcinoma cell line SCC 15; experiment: Cell-Titer Glo proliferation assay, SCC15; format: cell-based, human; settings: 0.000256-100 nM antibody, 96 hours
Procedure: Cell proliferation was assayed using a Cell-Titer Glo assay (Promega Corp.; Madison, Wis.). A cell-titer glo assay generates a “glow” luminescent signal in the presence of ATP from viable cells, which can be detected with a plate reader luminometer or CCD imaging device.
In this assay, squamous cell carcinoma cells, SCC9, SCC25 and SCC15, were trypsinized, counted and resuspended at 25,000 cells/ml in 10% HI-FBS RPMI containing NEAA, L-Glu, MEM Vitamins and PS. […] (2500 cells) were added to each well BD Falcon 96 well black, clear bottom TC treated plate. Cells were allowed to attach and spread overnight at 37° C. Then, 10% RPMI medium was replaced with […] 2% RPMI, containing the LCF/HCA antibody at the appropriate concentration, the following day. The anti-IGF1R antibody concentrations used in each experiment were 100 nM, 20 nM, 5 nM, 0.8 nM, 0.16 nM, 0.032 nM, 0.0064 nM, 0.00128 nM, and 0.000256 nM. All treatments were prepared in 2% RPMI at 20× concentration and serial diluted. Every test point was prepared in triplicate on separate assay plates. As mentioned above, cell proliferation was measured using the CellTiter-Glo Luminescent Cell Viability Assay (Promega) at 96 hours post treatment. Luminescence was detected on a Wallac 420 Plate Reader with stacker.

[7] = system: OS-2 xenograft (Osteosarcoma); experiment: PPTP in vivo xenograft OS-2; design: key to EFS activity notation (high, intermediate, indeterminate): high (!); intermediate (#); indeterminate (^); settings: OS-2 (Osteosarcoma) xenograft, 0.5 mg per mouse ip twice weekly for four weeks
Procedure: as §1, §2, §3, §4, §5, §6

[8] = system: CHLA-79 xenograft (Neuroblastoma); experiment: PPTP in vivo xenograft CHLA-79; design: key to EFS activity notation (high, intermediate, indeterminate): high (!); intermediate (#); indeterminate (^); settings: CHLA-79 (Neuroblastoma) xenograft, 0.5 mg per mouse ip twice weekly for four weeks
Procedure: as §1, §2, §3, §4, §5, §6

[9] = system: SCC15 human squamous cell carcinoma tumor cells; experiment: SCC15 squamous cell carcinoma xenograft in SCID mice; format: in vivo, mouse; settings: 0.1 mg/injection ip two times per week, seven times starting on day 10
Procedure: Immune-deficient SCID mice (strain SCID) were inoculated with SCC15 human squamous cell carcinoma tumor cells in the right flank, subcutaneously, along with Matrigel (1:1 cells:gel). In these experiments, 5×10^6 cells/mouse in a 1:1 mix with regular matrigel were inoculated. The LCF/HCA anti-IGF1R antibody was inoculated intraperitoneally (ip) (0.1 mg/injection). Mice were dosed with the antibody two times per week, by intraperitoneal injection, seven times starting on day 10 with the last dose on day 31. Tumor size was measured with calipers and the data was entered into the labcat program. Mice were grouped with average size of 100 mm^3. Tumor size and body weight were measured twice weekly.

[10] = 0.5 mg per mouse ip twice weekly for four weeks
[11] = day 21, 0.5 mg per mouse ip twice weekly for four weeks

B1: LCF/HCA: fully human anti-IGF1R antibody comprising the mature 19D12/15H12 light chain F (LCF) and mature heavy chain A (HCA) (antibody, V domains shown)
VH: EVQLVQSGGGLVHPGGSLRLSCAASGFTFSSFAMHWVRQAPGKGLEWISVIDTRGATYYADSVKGRFTISRDNAKNSLYLQMNSLRAEDMAVYYCARLGNFYYGMDVWGQGTTVTVSS
VL: EIVLTQVPDFQSVTPKEKVTITCRASQSIGSSLHWYQQKPDQSPKLLIKYASQSLSGVPSRFSGSGSGTDFTLTINSLEAEDAAAYYCHQSSRLPHTFGGGTKVEIKRT
EFS T/C [1]: 1.8
Median Final RTV [1]: >4
Overall Group Response [1]: PD2 (1 < MS ≦ 3)
Tumor Volume T/C ([1]; day 21): 0.53
EFS T/C [2, 10]: 4.2
EFS activity notation (high, intermediate, indeterminate) [2, 10]: #
Median Final RTV [2, 10]: >4#
Overall Group Response [2, 10]: PD2 (1 < MS ≦ 3)
Tumor Volume T/C [2, 11]: 0.29
EFS T/C [3]: 1.2
Median Final RTV [3]: >4
Tumor Volume T/C ([3]; day 21): 0.5
EFS T/C [4]: 1.1
Median Final RTV [4]: >4
Tumor Volume T/C ([4]; day 21): 0.84
EFS T/C [5, 10]: > 1.8
EFS activity notation (high, intermediate, indeterminate) [5, 10]: ^
Median Final RTV [5, 10]: 3.7^
Overall Group Response [5, 10]: PD2 (1 < MS ≦ 3)
Tumor Volume T/C [5, 11]: 0.41
proliferation of squamous cell carcinoma cell line [6]: inhibited
EFS T/C [7]: 2.3
EFS activity notation (high, intermediate, indeterminate) [7]: #
Median Final RTV [7]: >4#
Overall Group Response [7]: PD2 (1 < MS ≦ 3)
Tumor Volume T/C ([7]; day 21): 0.5
EFS T/C [8]: 2.1
EFS activity notation (high, intermediate, indeterminate) [8]: #
Median Final RTV [8]: 3.9#
Overall Group Response [8]: PD2 (1 < MS ≦ 3)
Tumor Volume T/C ([8]; day 21): 0.69
tumor growth [9]: less than that observed in mice only receiving a control injection without the antibody
